This passage reports Kd results from PMC11540549 (Biochemistry, 2019).

No end group written: not given here.

Test [1] has as its target TCF19 PHD C324A (UniProt Q9Y242). The test can be described thus: NMR titration.
The target of test [2] is TCF19 PHD R330Y (UniProt Q9Y242). The test can be described thus: NMR titration.
The target of test [3] is TCF19 PHD W307Y (UniProt Q9Y242). The test can be described thus: NMR titration.
Test [4] addresses T1, TCF19 (DDCAC) PHD (UniProt Q9Y242 296-342).
T1 sequence: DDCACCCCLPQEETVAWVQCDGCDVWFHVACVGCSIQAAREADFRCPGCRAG
The test can be described thus: other fluorescence titration.

As usually defined, the Kd is the free concentration of one partner at which half of the binding sites on the other are occupied at equilibrium, for simple one-to-one binding. Take “H3K4me3 peptide (residues 1-12) (from UniProt P68431 2-13)”: the values for the Kd in test [1], in test [2] and in test [3] were 440 µM, 400 µM and 2 mM, respectively.

B1: H3K4me3 peptide (residues 1-12) (peptide, UniProt P68431 2-13, looked up)
peptide: ARTK(Me3)QTARKSTG
For the molecule B1, the Kd in test [4] was found to be 4.7 µM.
